The values below come from publication PMC1459065.

Like-named read-outs stand apart in the source and are kept apart here.

The target in series [1] is T1, RecA (Escherichia coli, UniProt P0A7G6 1-353). Description: double filter binding.
The target of series [2] is T1, RecA. Description: double filter binding. This is another data set of the same source.

T1 sequence (P0A7G6 whole entry): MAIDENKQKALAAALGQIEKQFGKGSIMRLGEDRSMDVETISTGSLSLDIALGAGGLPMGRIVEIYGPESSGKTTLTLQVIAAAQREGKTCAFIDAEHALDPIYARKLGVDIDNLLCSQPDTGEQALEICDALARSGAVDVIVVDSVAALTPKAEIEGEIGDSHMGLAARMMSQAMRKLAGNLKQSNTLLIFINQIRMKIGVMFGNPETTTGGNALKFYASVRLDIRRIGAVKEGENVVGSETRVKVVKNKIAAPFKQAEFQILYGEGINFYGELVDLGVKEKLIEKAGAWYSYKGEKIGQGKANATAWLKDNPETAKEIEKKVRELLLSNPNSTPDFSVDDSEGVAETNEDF

B1: TGG-repeating 48mer (ssDNA)
DNA: TGGTGGTGGTGGTGGTGGTGGTGGTGGTGGTGGTGGTGGTGGTGGTGG
Broadly, the Kd is the concentration at which binding is half-saturated. Low values mean a tighter complex, high ones a looser complex. B1 yielded a Kd with RecA [1] of 91 nM.

B2: CCA-repeating 48mer (ssDNA)
DNA: CCACCACCACCACCACCACCACCACCACCACCACCACCACCACCACCA
B2 displayed a Kd with RecA [2] of 246 nM.
